In paper PMC13399123, “Interaction of HS1BP3 with cortactin modulates TKS5 localisation, cell secretion and cancer malignancy” (Molecular Oncology, 2026):

Biological target: T1, full-length MBP-HS1BP3 (UniProt Q53T59 1-392)
T1 construct: HS1BP3, full length; also called HS1BP3 FL; MBP HS1BP3 full-length WT; source: SoluBL21 E. coli, purified (amylose resin, eluted with 10 mM maltose)
T1 sequence (looked up): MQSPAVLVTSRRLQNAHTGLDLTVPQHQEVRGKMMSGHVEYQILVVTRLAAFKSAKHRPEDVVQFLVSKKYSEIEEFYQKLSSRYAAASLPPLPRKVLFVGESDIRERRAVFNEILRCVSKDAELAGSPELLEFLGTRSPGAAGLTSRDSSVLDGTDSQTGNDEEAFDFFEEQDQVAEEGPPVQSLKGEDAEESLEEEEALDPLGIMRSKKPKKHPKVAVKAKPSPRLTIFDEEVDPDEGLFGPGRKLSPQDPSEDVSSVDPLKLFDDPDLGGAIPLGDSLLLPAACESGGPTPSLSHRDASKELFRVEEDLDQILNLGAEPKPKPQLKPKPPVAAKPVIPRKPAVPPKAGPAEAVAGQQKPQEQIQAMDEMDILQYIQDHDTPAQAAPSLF
Assay: pull-down; equal concentrations of GST-SH3 (on glutathione beads) and purified MBP-tagged HS1BP3 proteins incubated 2 h at 4 °C, six washes with GST-buffer, anti-MBP immunoblot
Conditions: both partners purified

- binding result: binds
B1: GST-SH3 (SH3 domain of cortactin fused to GST) (domain or fragment)
chain: not shown
notes: SH3 domain of cortactin (CTTN); Q14247 amino acids 492-550 are printed only for the SH3 fragment used in the AlphaFold model; Held on glutathione beads as bait; also called GST-SH3 (cortactin); source: SoluBL21 E. coli, purified on Glutathione Sepharose 4B beads
